Test results reported in paper PMC6859792.

System: O=P(O)(O)O[C@H]1O[C@H]([C@H](O)CO)[C@@H](O)[C@H](O)[C@@H]1O
Test: purified protein
Conditions: pH 7.4, 25 °C, GTP 1.0 mM, MgCl2 2.0 mM, pyrophosphatase 1 U

Question: With “Cj1423 (Campylobacter jejuni subsp. jejuni NCTC 11168 = ATCC 700819)” as the substance, how does the Km read?
Answer: The Km was 495 ± 65 µM.

Question: What about the kcat of the same substance?
Answer: Its kcat is 1.35 ± 0.04 s⁻¹.

Question: And the kcat/Km?
Answer: The kcat/Km was 2700 ± 400 M⁻¹ s⁻¹.
